Assay results taken from paper PMC3642092 (FEBS Open Bio, 2012).

B1: UTR261^T36C/S242C, oxidised (intra-chain disulphide, locked closed) (domain or fragment)
chain: MAKYGEHEASPDNGQNEFSDIIKSRSDEHNDVQKKCFTKWINARFSKSGKPPINDMFTDLKDGRKLLDLLEGLTGTSLPKERGSTRVHALNNVNRVLQVLHQNNVELVNIGGTDIVDGNHKLTLGLLWSIILHWQVKDVMKDVMSDLQQTNSEKILLSWVRQTTRPYSQVNVLNFTTSWTDGLAFNAVLHRHKPDLFSWDKVVKMSPIERLEHAFSKAQTYLGIEKLLDPEDVAVQLPDKKCIIMYLTSLFEVLPQQVTID
modifications: intra-chain disulphide between the engineered cysteines C36 and C242
B2: UTR261^T36C/S242C, reduced (domain or fragment)
chain: B1 chain

Biological target: F-actin (filamentous rabbit skeletal muscle actin) (rabbit, UniProt P68135 1-377)
Assay: co-sedimentation

Binder	Kd [µM]
B1	123 ± 14
B2	74.8 ± 19
